# Measured values published in patent CN116406375A (UNIV SHANGHAI TECHNOLOGY, dated 2023).
# Tests used:
# [1] = target: 野生型SARS-CoV-2假病毒的刺突Δ19 (SARS-CoV-2, UniProt P0DTC2 14-1254); experiment: cell-based or functional assay
# [2] = target: SARS-CoV-2刺突N501Y+D614G假病毒的刺突Δ19 (SARS-CoV-2, UniProt P0DTC2 14-1254); experiment: cell-based or functional assay
# [3] = target: 真SARS-CoV-2英国变异株(B.1.1.7)病毒的刺突 (SARS-CoV-2); experiment: cell-based or functional assay
# [4] = target: SARS-CoV-2 K417N+E484K+N501Y+D614G假病毒的刺突Δ19 (SARS-CoV-2, UniProt P0DTC2 14-1254); experiment: cell-based or functional assay
# [5] = target: SARS-CoV-2 B.1.617.2假病毒的刺突Δ19 (SARS-CoV-2); experiment: cell-based or functional assay
# [6] = target: T1, SARS-CoV-2 S-RBD (SARS-CoV-2, UniProt P0DTC2 319-541); experiment: BLI, biotinylated S-RBD on SA sensor, 1:1 Langmuir model
# T1 construct: also called WT S-RBD; 野生型(WT)S-RBD
# [7] = target: T2, K417N+E484K+N501Y RBD (SARS-CoV-2, UniProt P0DTC2 319-541); experiment: BLI, biotinylated B.1.351 S-RBD on SA sensor, 1:1 Langmuir model
# T2 construct: also called B.1.351S-RBD; B.1.351的刺突RBD
Binder,"NT50, 假病毒中和 (野生型PSV) [1]","NT50, 假病毒中和 (N501Y+D614G PSV) [2]","NT50, 真病毒中和 (B.1.1.7) [3]",NT50(B.1.351) [4],NT50(B.1.617.2) [5],Kd [6],Kd [7]
"S-E6 (antibody, V domains shown, also called S-E6二聚体; 二聚体S-E6) VH: QVTLRESGPGLVKPSETLSLTCAVSGGSLSSVNYYWSWIRQHPGKGLEWIGYIYYSGSTNYNPSLKSRVTMSLDTSKNQFSLKLSSVTAADTAVYYCATPGAIMGALHIWGQGTLVTVSS VL: QAVLTQPSSASSTPGQRVIISCSGSSSNIGSNTVSWYQQVPGAAPKLLIYFDYRRPSGVPDRFSGTRSGTSASLGISGLQSEDEADYYCAAWDDSLSAWVFGRGTKLTVLG",0.025 nM,0.021 nM,1.15 nM,0.32 nM,0.065 nM,–,–
"S-E6三聚体 (other, also called 三聚体S-E6) heavy (part 1 of 2): QVTLRESGPGLVKPSETLSLTCAVSGGSLSSVNYYWSWIRQHPGKGLEWIGYIYYSGSTNYNPSLKSRVTMSLDTSKNQFSLKLSSVTAADTAVYYCATPGAIMGALHIWGQGTLVTVSS heavy (part 2 of 2): GGGGSGGGGSGGGGSPGSGYIPEAPRDGQAYVRKDGEWVLLSTFLGHHHHHH light: QAVLTQPSSASSTPGQRVIISCSGSSSNIGSNTVSWYQQVPGAAPKLLIYFDYRRPSGVPDRFSGTRSGTSASLGISGLQSEDEADYYCAAWDDSLSAWVFGRGTKLTVLG",–,–,–,–,0.007 nM,0.0101 nM,0.58 nM
"S-B8 (antibody, V domains shown, also called S-B8二聚体) VH: QVQLVQSGGGLIQPGGSLRLSCAASGFTVSLSHMNWVRQAPGKGLEWVSITYGDGNSDYADSVKGRFTISRDNSKNTLYLQMNSLRAEDTAVYYCAREYYYGMDVWGQGTTVTVSS VL: not shown",–,0.53 nM,–,1.2 nM,0.37 nM,–,–
S-B8三聚体 (other) heavy (part 1 of 2): QVQLVQSGGGLIQPGGSLRLSCAASGFTVSLSHMNWVRQAPGKGLEWVSITYGDGNSDYADSVKGRFTISRDNSKNTLYLQMNSLRAEDTAVYYCAREYYYGMDVWGQGTTVTVSS heavy (part 2 of 2): GGGGSGGGGSGGGGSPGSGYIPEAPRDGQAYVRKDGEWVLLSTFLGHHHHHH light: not shown,–,–,–,0.35 nM,0.15 nM,–,–
"S-D4 (antibody, V domains shown, also called S-D4二聚体; S-D4 IgG4) VH: QVQLQESGGGVVQPGRSLRLSCEVSGFTFSDYGMHWVRQAPGKGLEWVAVIWSEGSTEYYADSVKGRFTISRDNSKDTLYLQMNSLRAEDTAVYYCARPGYPTSTDRSPAAAGARQYYYYGMDVWGQGTTVTVSS VL: NFMLTQPHSVSESPGKTVTISCTRSGGSGAANYVQWYQQRPGSSPTTLIYEDSRRPPGVPDRFSGSVDTSSNSASLTISGLQTEDEADYYCQSYDSSNHVVFGGGTKLTVLG",0.48 nM,0.042 nM,1.88 nM,0.66 nM,0.24 nM,–,–
